Experimental data as given in US20230025129A1 (KYMAB, published 2023).

T1: human MTP-2 expressed on HEK293 cells (human, UniProt Q8IU80 1-811)
T1 sequence: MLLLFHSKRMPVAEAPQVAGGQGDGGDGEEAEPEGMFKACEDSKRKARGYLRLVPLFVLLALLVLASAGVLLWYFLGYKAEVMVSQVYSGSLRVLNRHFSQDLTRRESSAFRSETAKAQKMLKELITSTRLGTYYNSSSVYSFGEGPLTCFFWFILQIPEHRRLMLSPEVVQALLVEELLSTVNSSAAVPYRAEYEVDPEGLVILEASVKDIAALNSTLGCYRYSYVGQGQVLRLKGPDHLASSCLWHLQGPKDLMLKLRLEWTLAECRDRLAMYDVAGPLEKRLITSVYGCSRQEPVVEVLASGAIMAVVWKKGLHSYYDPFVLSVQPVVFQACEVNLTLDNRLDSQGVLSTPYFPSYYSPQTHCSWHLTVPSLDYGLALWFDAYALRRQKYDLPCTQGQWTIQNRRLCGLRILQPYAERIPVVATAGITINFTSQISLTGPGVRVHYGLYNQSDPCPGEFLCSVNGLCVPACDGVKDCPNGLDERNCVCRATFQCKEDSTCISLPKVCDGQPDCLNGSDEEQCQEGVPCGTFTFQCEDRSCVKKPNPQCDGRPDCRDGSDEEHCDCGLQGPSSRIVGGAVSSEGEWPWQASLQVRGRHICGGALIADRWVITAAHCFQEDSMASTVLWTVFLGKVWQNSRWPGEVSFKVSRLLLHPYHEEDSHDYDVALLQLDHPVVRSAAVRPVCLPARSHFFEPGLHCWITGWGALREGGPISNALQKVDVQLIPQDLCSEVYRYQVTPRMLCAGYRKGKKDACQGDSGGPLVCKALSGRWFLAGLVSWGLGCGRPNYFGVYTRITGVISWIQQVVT

T2: mouse matriptase-2 ECD protein his tag (mouse, UniProt Q9DBI0 80-811)
T2 sequence: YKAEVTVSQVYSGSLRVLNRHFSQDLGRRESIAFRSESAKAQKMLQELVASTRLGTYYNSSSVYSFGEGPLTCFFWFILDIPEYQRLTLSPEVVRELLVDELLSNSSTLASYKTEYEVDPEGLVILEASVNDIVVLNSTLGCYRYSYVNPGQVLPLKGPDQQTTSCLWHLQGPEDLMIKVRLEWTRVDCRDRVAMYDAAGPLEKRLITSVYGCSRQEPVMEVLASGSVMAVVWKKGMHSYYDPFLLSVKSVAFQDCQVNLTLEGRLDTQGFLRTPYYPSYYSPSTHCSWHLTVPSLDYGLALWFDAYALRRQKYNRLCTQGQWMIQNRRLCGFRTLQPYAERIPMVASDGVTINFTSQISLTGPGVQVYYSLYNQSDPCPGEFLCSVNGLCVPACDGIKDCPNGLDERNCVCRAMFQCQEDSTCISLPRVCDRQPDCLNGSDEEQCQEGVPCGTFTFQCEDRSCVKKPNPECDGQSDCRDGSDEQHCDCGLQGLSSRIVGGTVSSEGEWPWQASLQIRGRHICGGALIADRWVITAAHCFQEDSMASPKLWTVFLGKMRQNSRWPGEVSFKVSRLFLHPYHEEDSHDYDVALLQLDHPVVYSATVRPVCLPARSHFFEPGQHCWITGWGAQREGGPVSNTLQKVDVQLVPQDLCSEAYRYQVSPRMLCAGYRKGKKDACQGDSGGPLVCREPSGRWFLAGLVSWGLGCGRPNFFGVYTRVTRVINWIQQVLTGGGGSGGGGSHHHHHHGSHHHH

T3: human matriptase-2 ECD protein his tag (human, UniProt Q8IU80 78-811)
T3 sequence: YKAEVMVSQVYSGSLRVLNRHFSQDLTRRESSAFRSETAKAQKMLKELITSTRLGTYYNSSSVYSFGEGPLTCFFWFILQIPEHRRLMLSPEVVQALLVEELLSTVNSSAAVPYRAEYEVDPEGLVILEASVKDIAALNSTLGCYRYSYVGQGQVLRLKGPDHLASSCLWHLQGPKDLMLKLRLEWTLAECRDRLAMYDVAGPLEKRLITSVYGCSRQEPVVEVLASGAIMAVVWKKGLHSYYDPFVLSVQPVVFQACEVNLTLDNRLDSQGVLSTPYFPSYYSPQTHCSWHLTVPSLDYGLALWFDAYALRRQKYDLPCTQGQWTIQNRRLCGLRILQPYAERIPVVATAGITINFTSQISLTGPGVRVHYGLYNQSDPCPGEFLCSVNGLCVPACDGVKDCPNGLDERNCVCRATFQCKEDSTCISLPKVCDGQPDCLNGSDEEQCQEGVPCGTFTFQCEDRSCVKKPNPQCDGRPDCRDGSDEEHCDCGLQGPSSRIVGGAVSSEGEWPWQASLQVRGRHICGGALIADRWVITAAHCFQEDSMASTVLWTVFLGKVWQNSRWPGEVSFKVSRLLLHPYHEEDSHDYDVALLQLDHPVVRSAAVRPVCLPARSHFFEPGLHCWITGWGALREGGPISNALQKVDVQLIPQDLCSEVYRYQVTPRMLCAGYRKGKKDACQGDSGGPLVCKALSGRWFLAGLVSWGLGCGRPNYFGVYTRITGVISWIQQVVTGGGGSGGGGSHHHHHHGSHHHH


Assays:
Assay in all cases: cell-based or functional assay
[1] = molecular target: T1, human MTP-2 expressed on HEK293 cells
[2] = molecular target: T2, mouse matriptase-2 ECD protein his tag
[3] = molecular target: T3, human matriptase-2 ECD protein his tag

| Inhibition enzymatic activity human MTP2 on cells (IC50) [1] | Inhibition enzymatic activity mouse MTP2 protein (IC50) [2] | Inhibition enzymatic activity human MTP2 protein (IC50) [3] | Binder |
| --- | --- | --- | --- |
| 13.2 nM | 2.92 nM | 5.45 nM | NORI-023 (antibody, human IgG4 S228P, lambda, V domains shown) VH: QVQLVESGGGLVKPGGSLRLSCAASGFTFSDYYMSWIRQAPGKGLEWVSYISSSGGNRYYADSVKGRFTISRDNAKNSLYLQMNSLRAEDTAVYYCARGGLRYFDWADFWGQGTLVTVSS VL: QSVLTQPPSVSAAPGQKVTISCSGSSSNIGNNYVSWYQQLPGTAPKLLIYDNNKRPSGIPDRFSGSKSGTSATLGIPELQTGDEADYYCGTWDNSLSAGVFGGGTKLTVLG |
| 3.85 nM | 8.96 nM | 11.8 nM | NORI-028 (antibody, human IgG4 S228P, lambda, V domains shown) VH: EVQLVESGGAVVRPGGSLRLSCAISGFILDDYGMNWVRQGPGKGLEWVAGISWNGDSTRYADSVKGRFTISRDNAQNSLYLQMNSLRAEDTALYFCAREYSGDFYYYYYGMDVWGQGTTVTVSS VL: QSALTQPPSASGSPGQSVTISCTGTSSDVGFYNFVSWYQHHPGKAPKLMIYEVSKRPSGVPDRFSGSKSANTASLTVSGLQAEDEADYYCSSYAGSNNLVFGGGTKLTVLG |
| 0.243 nM | 9.35 nM | 2 nM | NORI-029 (antibody, human IgG4 S228P, lambda, V domains shown) VH: EVQLVESGGGLVKPGRSLRLSCTASGFTFGDYVMSWFRQAPGKGLEWVGFIRSKPYSETTEYAASVRGRFTISRDDSKSIAYLQMNSLKTEDTAVYYCTRALYDLLTGPWMGGDYFYALDVWGQGTTVTVSS VL: QSALTQPPSASGSPGQSVTISCTGTSSDVGDYNYVSWYQQHPGKAPKLMIYEVSKRPSGVPDRFSGSKSGNTASLTVSGLQAEDEADYYCKSYAGSNNLVFGGGTKLTVLG |
| 0.765 nM | 2.98 nM | 4.36 nM | NORI-022 (antibody, human IgG4 S228P, lambda, V domains shown) VH: EVRLVESGGGLVQSGGSLRLSCAASGFTFSTYTMNWVRQAPGKGLEWVSYISIRNSIIDYADSVKGRFTISRDNAKNSLYLQMNSLRDEDTAVYYCAREEFCGTTSCYFLDYWGQGILVTVSS VL: QSVLTQPPSVSGAPGQRVTISCTGSSSNIGAGYDVHWYQQLPGTAPKLLIYGNSNRPSGVPDRFSGSKSGTSASLAITGLQAEDEADYYCQSYDSSLSGYVFGTGTKVTVLG |
| 0.817 nM | 6.22 nM | 5.11 nM | NORI-026 (antibody, human IgG4 S228P, kappa, V domains shown) VH: QVQLVESGGGVVQPGRSLRLSCAASGFTFSYFGMHWVRQAPGKGLEWVADISYDGSDENYADSVKGRFTISRDNSKNTLSLQMNSLRAEDTAVYYCAKETYQSLMYLEYWGQGILVTVSS VL: AIQMTQSPSSLSASVGDRVTITCRASQDIRNDLGWYQQKPGKAPKLLIYTAPSLQSGVPSRFSGSGSGTDFTLTIGSLQPEDFATYYCLQDYNYPWTFGQGTKVEIKR |
| 8.04 nM | 6.8 nM | 10.5 nM | NORI-024 (antibody, human IgG4 S228P, lambda, V domains shown) VH: QVQLVQSGPELKKPGASVKVSCKASGYTFTNFGISWVRQAPGQGLEWMGWISAYSGFTNFAQKFQGRVSMTTDTSTSTVYMELKSLRSDDTAVYYCAREGYSNYEDWFDPWGQGTLVTVSS VL: SYELTQPPSVSVSPGQTARITCSGDALPKKYAYWYQQKSGQAPVLVIYEDSKRPSGIPERISGSNSGTMATLTISGAQVEDEADYYCYSTDSSGNHRVFGGGTKLTVLG |
| 16.9 nM | 40.8 nM | 24.9 nM | NORI-027 (antibody, human IgG4 S228P, lambda, V domains shown) VH: QVQLVQSGAELKKPGASVKVSCKASGYTFNNYGISWVRQAPGQGLEWMGWISAYSGYTNIAQKFQGRVTMTTDTSTNTVYMELGSLRSDDTAVYYCAREGYSNFEDWFDPWGQGTLVTVSS VL: SYELTQPPSVSVSPGQTARITCSGDELPKKYAYWYQQKSGQAPVLVIYEDSKRPSGIPERISGSNSGTMATLTISGAQVEDEADYYCYSTDSSGNHRVFGGGTKLTVLG |
| 3.51 nM | 27 nM | 10.3 nM | NORI-031 (antibody, human IgG4 S228P, lambda, V domains shown) VH: QLQLQESGPGLVKPSETLSLTCTVSGGAISSSNYFWGWIRQSPGKGLEWIGSMYYTGITYYNPSLKSRVTISVDTSKNQLSLKVNSVTAADTAVYYCARQDGFRTGWFDPWGQGTLVTVSS VL: SYELTQPPSVSVSPGQTATLTCSGDKLGDNYVCWFQQKPGQSPLLVMYQDTKRPSGIPERFSGSNSGNTATLTISGTQALDEADYYCQAWDSRTVVFGGGTKLTVLG |
| 1.66 nM | 0.716 nM | 1.6 nM | NORI-032 (antibody, human IgG4 S228P, lambda, V domains shown) VH: QVQLVQSGAEVRKPGAAVKVSCKASGYTFSSFGITWIRQAPGQGLEWMGWISAYNGISNSAQKVQGRVTMTTDTSTSTAYMELRSLRSDDSAVYYCARDRANRDALDVWGQGTKVTVSL VL: SHELTQPPSMSVSPGQTASITCSGDELGDRYACWYQQKPGQSPVLVIYQDTKRPSGIPERFSGSISGNTATLTISGTQAMDEADYYCQAWDSSTVVFGGGTKLTVLG |
| 1.88 nM | 6.21 nM | 3.27 nM | NORI-025 (antibody, human IgG4 S228P, lambda, V domains shown) VH: QVQLVESGGGVVQPGRSLRLSCTASGVTFTNFDMHWVRQTPGKGLEWVAVIWYDESYSYYADSVQGRFTISRDNSKNSLYLQMNSLRADDTAVYYCARGWTGSYVFDYWGQGTLVTVSS VL: QSVLTQPPSVSEAPRQRVTISCSGSSSNIGNNAVNWYQQLPGKAPKLLISYDDLLPSGVSDRFSGSKSGTSASLAISGLQSADEADYYCAAWDDSLNAVVFGGGTKLTVLG |
| 0.227 nM | 6.66 nM | 1.88 nM | NORI-030 (antibody, human IgG4 S228P, lambda, V domains shown) VH: QVQLVESGGGVVQPGRSLRLSCAASGFTFSNFDMDWVRQAPGRGLEWVALISYDGSKKYYADSVKGRFTISRDNSKNTLYLQMNSLRGEDTAVYFCAKEGYGGYDGFDYWGQGTLVTVSS VL: QSVLTQPPSVSEAPRQRVTISCSGSTSNIGNNAVNWYQQLPGKAPKLLISYDYVVSSGVSDRFSGSKSGTSASLAISGLQSADEADYYCSTWDDGLNGVVFGGGTKLTVLG |
